In general, IC50 refers to the midpoint of a concentration-inhibition curve. Low readings indicate greater potency in that assay, high ones weaker potency in that assay.

What all share (assay): cell-based or functional assay
For one experiment, the target named is T1, human DR3 L45V (human, UniProt Q93038 25-417).
T1 sequence: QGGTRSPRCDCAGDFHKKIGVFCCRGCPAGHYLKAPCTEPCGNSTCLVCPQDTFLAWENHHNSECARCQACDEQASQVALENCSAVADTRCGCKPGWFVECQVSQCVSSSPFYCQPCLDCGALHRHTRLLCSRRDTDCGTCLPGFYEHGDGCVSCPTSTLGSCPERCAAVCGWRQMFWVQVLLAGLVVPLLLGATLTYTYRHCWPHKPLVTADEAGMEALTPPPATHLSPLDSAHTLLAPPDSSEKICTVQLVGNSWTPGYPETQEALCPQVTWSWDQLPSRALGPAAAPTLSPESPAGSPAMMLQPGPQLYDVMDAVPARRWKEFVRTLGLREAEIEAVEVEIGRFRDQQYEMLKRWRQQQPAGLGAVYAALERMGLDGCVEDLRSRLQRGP

For experiment [1], the target named is T2, human DR3 (full length, on cells) (human, UniProt Q93038 25-417).
T2 sequence: T1 sequence with V21L

The next experiment has as its target T3, human DR3 R29Q (human, UniProt Q93038 25-417).
T3 sequence: T1 sequence with R5Q, V21L

The next experiment addresses T4, human DR3 I43N/L45V (human, UniProt Q93038 25-417).
T4 chain: T1 sequence with I19N

For experiment [2], the target named is T2, human DR3 (full length, on cells). This is another data set of the same source.
Experiment [3] addresses T5, cynomolgus DR3 (on HEK293 reporter cells) (cynomolgus, UniProt A0A2K5WJ09 98-464).
T5 sequence: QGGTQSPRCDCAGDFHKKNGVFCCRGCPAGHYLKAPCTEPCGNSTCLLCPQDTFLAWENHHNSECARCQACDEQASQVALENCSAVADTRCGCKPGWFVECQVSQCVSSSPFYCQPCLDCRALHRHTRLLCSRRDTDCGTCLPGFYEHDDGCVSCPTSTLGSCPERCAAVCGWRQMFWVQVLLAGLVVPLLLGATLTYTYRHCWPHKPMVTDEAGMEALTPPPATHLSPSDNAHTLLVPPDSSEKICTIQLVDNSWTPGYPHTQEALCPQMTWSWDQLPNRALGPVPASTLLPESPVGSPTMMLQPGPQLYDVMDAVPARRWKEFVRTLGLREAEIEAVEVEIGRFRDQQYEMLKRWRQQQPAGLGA

For experiment [4], the target named is T6, marmoset DR3 (transiently expressed on HEK293 cells) (marmoset, UniProt U3ENN5 27-418).
T6 sequence: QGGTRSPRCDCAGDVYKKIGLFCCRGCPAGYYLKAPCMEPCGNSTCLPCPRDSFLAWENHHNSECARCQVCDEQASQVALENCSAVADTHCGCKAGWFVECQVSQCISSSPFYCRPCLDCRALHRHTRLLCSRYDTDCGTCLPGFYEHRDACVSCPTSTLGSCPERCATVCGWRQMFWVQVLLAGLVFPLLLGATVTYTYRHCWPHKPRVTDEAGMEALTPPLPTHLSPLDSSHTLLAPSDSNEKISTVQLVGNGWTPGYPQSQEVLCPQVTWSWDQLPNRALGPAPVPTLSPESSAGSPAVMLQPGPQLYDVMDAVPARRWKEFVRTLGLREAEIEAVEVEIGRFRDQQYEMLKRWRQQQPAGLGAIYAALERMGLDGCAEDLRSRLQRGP

Positions count from the first letter of the chain named. Numbers in names are those of the source.

B1: 0228 (humanized Fab of 27F44, IgG4, hz0072VH S49A / hz0072VL) (Fab, V domains shown)
VH: EVQLVESGGGLVQPGGSLRLSCAASGFTFSNYDMSWVRQATGKGLEWVAAFSSDGYTFYPGSVKGRFTISRENAKNSLYLQMNSLRAGDTAVYYCARHADYANYPVMDYWGQGTLVTVSS
VL: DIQMTQSPSSLSASVGDRVTITCRASKSVSTSGYSYMHWYQQKPGKAPKLLIYLASNLESGVPSRFSGSGSGTDFTLTISSLQPEDFATYYCQHSRELPLTFGGGTKVEIKR
notes: IgG4-Cys, hz (humanized IgG4 Fab with the hinge cysteine kept)
For the molecule B1, the “IC50 of Fab upon stimulation by TL1A, transient reporter” value in the experiment with human DR3 L45V worked out at 2 nM; in experiment [1], 0.645 nM; with human DR3 R29Q, 0.372 nM; in the experiment with human DR3 I43N/L45V, 149 nM. The “IC50 at 40 ng/ml TL1A, transient reporter HEK293” value in experiment [2] was 0.355 nM; in experiment [3], 73 nM; in experiment [4] it was 0.549 nM.
